In PMC3847041, “Role of N-Cadherin cis and trans Interfaces in the Dynamics of Adherens Junctions in Living Cells” (PLoS ONE, 2013):
One block for each molecule: values may come before it.

What was measured:
[1] = target: N-cadherin-R14E fluorescent fusion protein (X-dimer mutant); test: FRET or BRET; acceptor bleach FRET at junctions between living COS7 cells of two mixed populations, one expressing the Venus (acceptor) and the other the Cerulean (donor) copy; trans interaction across the junction; FRET ratio = (IpostDonor - IpreDonor)/IpostDonor
[2] = target: N-cadherin-R14E fluorescent fusion protein (X-dimer mutant); test: FRET or BRET; ratiometric FRET (Venus to Cerulean fluorescence over time) at a junction between one Venus- and one Cerulean-expressing living COS7 cell; 100 ms interval for 35 sec; baseline 10-15 sec, then the Ca2+ chelator BAPTA added to 20 mM final
[3] = target: N-cadherin-V81D/V174D fluorescent fusion protein (cis double mutant); test: FRET or BRET; acceptor bleach FRET at junctions between living COS7 cells of two mixed populations, one expressing the Venus (acceptor) and the other the Cerulean (donor) copy; trans interaction across the junction; FRET ratio = (IpostDonor - IpreDonor)/IpostDonor
[4] = target: N-cadherin-V81D/V174D fluorescent fusion protein (cis double mutant); test: FRET or BRET; ratiometric FRET (Venus to Cerulean fluorescence over time) at a junction between one Venus- and one Cerulean-expressing living COS7 cell; 100 ms interval for 35 sec; baseline 10-15 sec, then the Ca2+ chelator BAPTA added to 20 mM final
[5] = target: N-cadherin-W2A fluorescent fusion protein (strand-swap mutant); test: FRET or BRET; acceptor bleach FRET at junctions between living COS7 cells of two mixed populations, one expressing the Venus (acceptor) and the other the Cerulean (donor) copy; trans interaction across the junction; FRET ratio = (IpostDonor - IpreDonor)/IpostDonor
[6] = target: N-cadherin-W2A fluorescent fusion protein (strand-swap mutant); test: FRET or BRET; ratiometric FRET (Venus to Cerulean fluorescence over time) at a junction between one Venus- and one Cerulean-expressing living COS7 cell; 100 ms interval for 35 sec; baseline 10-15 sec, then the Ca2+ chelator BAPTA added to 20 mM final
[7] = target: the molecule itself; test: as above
[8] = target: the molecule itself; test: FRET or BRET; acceptor bleach FRET at junctions between living COS7 cells of two mixed populations, one expressing the Venus (acceptor) and the other the Cerulean (donor) copy; trans interaction across the junction; FRET ratio = (IpostDonor - IpreDonor)/IpostDonor

Molecule: N-cadherin-R14E fluorescent fusion protein (X-dimer mutant) (natural protein)
- FRET ratio (acceptor bleach) [1]: 14%
- ratiometric FRET ratio after 20 mM BAPTA [2]: 98.8%
- ratiometric FRET ratio before BAPTA [2]: 99.2%

Molecule: N-cadherin-W2A fluorescent fusion protein (strand-swap mutant) (natural protein)
- ratiometric FRET ratio before BAPTA [6]: 98.6%

B1: N-cadherin-WT fluorescent fusion protein (N-cadherin-Venus / N-cadherin-Cerulean) (natural protein, UniProt P15116 160-906, looked up)
chain: DWVIPPINLPENSRGPFPQELVRIRSDRDKNLSLRYSVTGPGADQPPTGIFIINPISGQLSVTKPLDRELIARFHLRAHAVDINGNQVENPIDIVINVIDMNDNRPEFLHQVWNGSVPEGSKPGTYVMTVTAIDADDPNALNGMLRYRILSQAPSTPSPNMFTINNETGDIITVAAGLDREKVQQYTLIIQATDMEGNPTYGLSNTATAVITVTDVNDNPPEFTAMTFYGEVPENRVDVIVANLTVTDKDQPHTPAWNAAYRISGGDPTGRFAILTDPNSNDGLVTVVKPIDFETNRMFVLTVAAENQVPLAKGIQHPPQSTATVSVTVIDVNENPYFAPNPKIIRQEEGLHAGTMLTTLTAQDPDRYMQQNIRYTKLSDPANWLKIDPVNGQITTIAVLDRESPNVKNNIYNATFLASDNGIPPMSGTGTLQIYLLDINDNAPQVLPQEAETCETPEPNSINITALDYDIDPNAGPFAFDLPLSPVTIKRNWTINRLNGDFAQLNLKIKFLEAGIYEVPIIITDSGNPPKSNISILRVKVCQCDSNGDCTDVDRIVGAGLGTGAIIAILLCIIILLILVLMFVVWMKRRDKERQAKQLLIDPEDDVRDNILKYDEEGGGEEDQDYDLSQLQQPDTVEPDAIKPVGIRRLDERPIHAEPQYPVRSAAPHPGDIGDFINEGLKAADNDPTAPPYDSLLVFDYEGSGSTAGSLSSLNSSSSGGDQDYDYLNDWGPRFKKLADMYGGGDD
notes: a fluorescent protein is inserted into the second extracellular cadherin repeat at position 151 of the mature protein; numbers count on: the mature protein; Self-association in trans: one cell population expresses the Venus copy (FRET acceptor), the other the Cerulean copy (FRET donor); both are written as this one molecule; also called N-cadherin-Venus-WT; WT-N-cadherin; source: COS7 cells, …
- ratiometric FRET ratio after 20 mM BAPTA [7]: 89.6%
- ratiometric FRET ratio before BAPTA [7]: 99.6%
- FRET ratio (acceptor bleach) [8]: 19.9%

More lines, now with the values ahead:

- FRET ratio (acceptor bleach) [3]: 22.4%
- ratiometric FRET ratio before BAPTA [4]: 99.6%
Molecule: N-cadherin-V81D/V174D fluorescent fusion protein (cis double mutant) (natural protein)

- FRET ratio (acceptor bleach) [5]: 29.4%
Molecule: N-cadherin-W2A fluorescent fusion protein (strand-swap mutant)
